Measurements: paper PMC3637252, “Structural Basis of the Induced-Fit Mechanism of 1,4-Dihydroxy-2-Naphthoyl Coenzyme A Synthase from the Crotonase Fold Superfamily” (PLoS ONE, 2013)
Changes are numbered by the printed parent chain. In names and notes the source's numbering stands.

B1: ecMenB (Escherichia coli K-12; F270A) (protein)
chain: MIYPDEAMLYAPVEWHDCSEGFEDIRYEKSTDGIAKITINRPQVRNAFRPLTVKEMIQALADARYDDNIGVIILTGAGDKAFCSGGDQKVRGDYGGYKDDSGVHHLNVLDFQRQIRTCPKPVVAMVAGYSIGGGHVLHMMCDLTIAADNAIFGQTGPKVGSFDGGWGASYMARIVGQKKAREIWFLCRQYDAKQALDMGLVNTVVPLADLEKETVRWCREMLQNSPMALRCLKAALNADCDGQAGLQELAGNATMLFYMTEEGQEGRNAANQKRQPDFSKFKRNP
notes: recombinant; homohexamer, active site formed by two subunits across the trimer-trimer interface
B2: ecMenB (Escherichia coli K-12; R267A) (protein)
chain: B1 chain with R267A, A270F
notes: as for B1
B3: ecMenB (Escherichia coli K-12; K89A) (protein)
chain: B1 chain with K89A, A270F
notes: as for B1
B4: 1,4-dihydroxy-2-naphthoyl coenzyme A (DHNA-CoA) synthase from Escherichia coli (enzyme)
chain: B1 chain with A270F
notes: DHNA-CoA synthase MenB, Escherichia coli; Crystallised with the small-molecule product analog HNA-CoA; also called ecMenB; MenB
B5: 1,4-dihydroxy-2-naphthoyl coenzyme A (DHNA-CoA) synthase from Synechocystis sp. PCC 6803 (enzyme)
chain: MDWHIAKHYDDILYYKAGGIAKIVINRPHKRNAFRPQTVFELYDAFCNAREDNRIGVVLLTGAGPHSDGKYAFCSGGDQSVRGEGGYIDDQGTPRLNVLDLQRLIRSMPKVVIALVAGYAIGGGHVLHLVCDLTIAADNAIFGQTGPKVGSFDGGFGSSYLARIVGQKKAREIWYLCRQYSAQEAERMGMVNTVVPVDRLEEEGIQWAKEILSKSPLAIRCLKAAFNADCDGQAGLQELAGNATLLYYMTEEGSEGKQAFLEKRPPDFSQYPWLP
notes: DHNA-CoA synthase MenB, Synechocystis sp; PCC 6803; wild type; Crystallised with the small-molecule product analogs HNA-CoA or SA-CoA; also called scMenB; MenB

Legend:
[1] = molecular target: T1, scMenB (Synechocystis sp. PCC 6803, UniProt P73495); experiment: X-ray crystal structure, […] Å; type: binding; settings: pH 6.0
T1 construct: gene menB; recombinant, purified to homogeneity; homohexamer
T1 sequence (P73495 1-275): B5 chain

[2] = molecular target: T1, scMenB; experiment: X-ray crystal structure, […] Å; type: binding; settings: co-crystal, pH 5.70; active site, product analog; chloride at the bicarbonate site
[3] = molecular target: T2, ecMenB (Escherichia coli, UniProt P0ABU0); experiment: X-ray crystal structure, […] Å; type: binding; settings: co-crystal, pH 5.5; active site, product analog; chloride at the bicarbonate site
T2 construct: gene menB; recombinant; homohexamer, active site formed by two subunits across the trimer-trimer interface

[4] = substrate: CC(C)(COP(=O)(O)OP(=O)(O)OC[C@H]1O[C@@H](n2cnc3c(N)ncnc32)[C@H](O)[C@@H]1OP(=O)(O)O)[C@@H](O)C(=O)NCCC(=O)NCCSC(=O)CCC(=O)c1ccccc1C(=O)O; experiment: purified protein; type: biochemical, Escherichia coli; settings: 200 mM phosphate pH 7.0, 20 mM NaHCO3, OSB-CoA made in situ from SHCHC with MenC and MenE
[5] = molecular target: the molecule itself; experiment: crystal structure; ecMenB co-crystallised with HNA-CoA; hanging drop, 294 K; 200 mM (NH4)2SO4, 23% PEG 3,350, 100 mM Bis-Tris pH 5.5; protein 10 mg/ml with 10 mM NaHCO3, 10 mM HNA-CoA, 20 mM KCl; 1.84 A
[6] = molecular target: the molecule itself; experiment: crystal structure; scMenB (5 mg/ml) co-crystallised with 5 mM HNA-CoA; 0.15 M ammonium acetate, 0.3 M ammonium sulfate, 16% PEG 3350, 100 mM Bis-Tris pH 5.70; 2.35 A

T2 sequence (P0ABU0 whole entry): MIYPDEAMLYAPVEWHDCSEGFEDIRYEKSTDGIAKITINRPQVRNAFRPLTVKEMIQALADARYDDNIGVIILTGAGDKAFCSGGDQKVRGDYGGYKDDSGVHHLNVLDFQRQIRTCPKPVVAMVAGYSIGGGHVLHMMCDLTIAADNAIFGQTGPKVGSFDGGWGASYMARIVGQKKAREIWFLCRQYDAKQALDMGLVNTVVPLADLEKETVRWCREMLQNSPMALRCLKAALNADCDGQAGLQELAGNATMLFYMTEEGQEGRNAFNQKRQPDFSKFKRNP

Row | Molecule | Km [4] | kcat [4] | kcat/Km [4] | also measured
1 | O=C(O)O [bicarbonate] | – | – | – | X-ray crystal structure, 2.00 Å ([1]; ternary complex with SA-CoA, bicarbonate site): a bicarbonate ion is found in the place of the chloride ion
2 | CC(C)(COP(=O)(O)OP(=O)(O)OC[C@H]1O[C@@H](n2cnc3c(N)ncnc32)[C@H](O)[C@@H]1OP(=O)(O)O)[C@@H](O)C(=O)NCCC(=O)NCCSC(=O)c1ccc2ccccc2c1O [1-hydroxy-2-naphthoyl-CoA] | – | – | – | X-ray crystal structure, 2.35 Å [2]: structures of the yellowish scMenB: HNA-CoA and colorless scMenB: SA-CoA crystals were also solved; X-ray crystal structure, 1.84 Å [3]: The ecMenB:HNA-CoA complex structure was solved by molecular replacement
3 | CC(C)(COP(=O)(O)OP(=O)(O)OC[C@H]1O[C@@H](n2cnc3c(N)ncnc32)[C@H](O)[C@@H]1OP(=O)(O)O)[C@@H](O)C(=O)NCCC(=O)NCCSC(=O)c1ccccc1O [salicyloyl-CoA] | – | – | – | X-ray crystal structure, 2.00 Å ([1]; co-crystal, active site, product analog, bicarbonate bound): structures of the yellowish scMenB: HNA-CoA and colorless scMenB: SA-CoA crystals were also solved
4 | B1 | 19.7 ± 3.9 µM | 0.0035 ± 0.000167 s⁻¹ | 180 ± 10 M⁻¹ s⁻¹ | –
5 | B2 | 16.6 ± 1.0 µM | 0.00267 ± 0.000167 s⁻¹ | 160 ± 20 M⁻¹ s⁻¹ | –
6 | B3 | 43.3 ± 2.0 µM | 0.0383 ± 0.00133 s⁻¹ | 890 ± 30 M⁻¹ s⁻¹ | –
7 | B4 | – | – | – | stoichiometry N [5]: 6
8 | B5 | – | – | – | stoichiometry N [6]: 6
